Reference: the nanobody polyreactivity screen of Harvey et al. (2022)

Test: yeast display, Sf9 membrane polyspecificity reagent, FACS + sequencing; frameworks hold sequencing errors
Procedure, shortened: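 Using colony PCR, genes from sorted yeast display clones were amplified, then sequenced on MiSeq at 2 × 250 and filtered by CDR length. The clones had been stained with 10% biotinylated, detergent-solubilized Sf9 membrane reagent for 1 hour at 4 °C and sorted by FACS into low and high (top ~1%) gates on anti-HA and streptavidin fluorescence. Polyreactivity labels come from the gate of origin.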

Sequence | polyreactivity (PSR sort gate)
QVQLVESGGGLVQAGGSLRLSCAASGFTFKYYAMGWYRQAPGKERELVAAISRRGTSTYYADSVKGRFTISRYNAKNTVYLQMNCLKPEDTAVYYCSACAYGTYSVYWINEYDYWGQGTQVTVSS | high polyreactivity
QVQLVESGGGLVQAGGSLRLSCAASGFTFKYYAMGWYRQAPGKERELVAVISSSGGSTYYADSVKGRFTISRDNAKNTVYLQMNSLKPEDTAVYYCAAELVYRYYVKDADDYWGQGTQVTVSS | low polyreactivity
QVQLVESGGGLVQAGGSLRLSCAASGFTFKYYAMGWYRQAPGQERELVAAISSTGSTYYADSVKGRFTISRDNAKNTVYLQTNSLKPEDTAVYYCNKLFEYWGGDNDYWGRGTQVTVSS | high polyreactivity
QVQLVESGGGLVQAGGSLRLSCAASGFTFKYYDMGWYRQAPGKERELVAGITWDGGSTTYSDSVKGRFTISRDNAKNTVYLQMNSLKPEDTAVYYCAADVRYTSPFYYYLGAYYYWGQGTQVTVSS | low polyreactivity
QVQLVESGGGLVQAGGSLRLSCAASGFTFLINAMGWYRQAPGKERELVAAIRSGGSTNYADSVKGRFTISRDNAKNTVYLQMNSLKPEDTAVYYCAARRYYPYKYRYGYWGQGTQVTVSS | high polyreactivity
QVQLVESGGGLVQAGGSLRLSCAASGFTFLIYAMGWYIQAPGKERELVADISYNDDITYYADSVKGRFTISRDNAKNTVYLQMNSLKPEDTAVYYCAADYVNPELDYWGQGTQVTVSS | low polyreactivity
QVQLVESGGGLVQAGGSLRLSCAASGFTFLNNTMGWYRQAPGKERELVAAITSSGDRTYYADSVKGRFTISRDNAKNTVYLQMNSLKPEDTAVYYCAADWAYYVASYLYYTFDYWGQGTQVTVSS | low polyreactivity
QVQLVESGGGLVQAGGSLRLSCAASGFTFLNYDMGWYRQAPGKERELVAAISRSDGITYYADSVKGRFTISRDNAKNSVYLHMNSLKPEDTAVYYCAAERDTPVGVPGYEYYYWGQGTQVTVSS | high polyreactivity
QVQLVESGGGLVQAGGSLRLSCAASGFTFLRNAMGWYRQAPGKERELVAAINRDGGRTYYADSVKGRFTISRDNAKNTVYLQMNSLKPADTAVYYCATTSQATSGPRRKLYYYWGQGTQVTVSS | high polyreactivity
QVQLVESGGGLVQAGGSLRLSCAASGFTFLRNAMGWYRQAPGKERELVAAISRSDRTNYADSVKGRFTISRDNAKNTFYLQMNSLKPEDTAVYYCNARHSYWTGRRVTDDYDYWGQGTQVTVSS | high polyreactivity
QVQLVESGGGLVQAGGSLRLSCAASGFTFLTYLMGWYRQAPGKERELVASISGSGGTTYYADSVKGRFTISRDNAKNTVYLQMNSLKPEDTAVYYCAASGRYRRYYKFNYWGQGTQVTVSS | high polyreactivity
QVQLVESGGGLVQAGGSLRLSCAASGFTFLVNAMGWYRLAPGKERELVAAISRIGASTYYADSVKVRFTISRDNAKNTVYIQMNSLKPQDTAVNYCAARPWANTYPRRRYDYWGQGTQVTVSS | high polyreactivity
QVQLVESGGGLVQAGGSLRLSCAASGFTFLVYAMGWYRQAPGKERELVAGITSGGRTYYADSVKGRFTISRDNAKNTVYLQMNSLKPEDTAVYYCAASRWAYEMNYWGQGSQVTVSS | high polyreactivity
QVQLVESGGGLVQAGGSLRLSCAASGFTFLVYVMGWYRQAPGKVRELVAAISSCGSSTYYADSVKGRFTISRDNAKNTVYLQMNSLKPEDTAVYYCAAAPYYSHEYDYWGQGTQVTVSS | low polyreactivity
QVQLVESGGGLVQAGGSLRLSCAASGFTFLWNAMGWYRQAPGKERELVAAISSSGGRTYYADSVKGRFTISRDNAKNTVYLLMNSLKPEDTAVYYCARVYSSPYNFGYWGQGTQVTVSS | low polyreactivity
QVQLVESGGGLVQAGGSLRLSCAASGFTFLYNAMGWYRQAPGKERELVAAIDSGGNTNYADSVKGRFTISRDNAKITVYLQLNSLKPEDTAVYYCAADVVSGGQGTADYDYWGQGTQVTVSS | low polyreactivity

Sequence | polyreactivity (PSR sort gate)
QVQLVESGGGLVQAGGSLRLSCAASGFTFLYNAMGWYRQAPGKERELVAAIDSGGNTNYADSVKGRFTISRDNAKNTVYLQMNSLKPEDTAVYYCAADVVSVGQGTADYDYWGQGTQVTVSS | low polyreactivity
QVQLVESGGGLVQAGGSLRLSCAASGFTFLYNAMGWYRQAPGKERELVASINSGGSTNYADSVKGRFTISRDKSKNTVYLQMNRLKPEDTAVYYCNAKRHVRKGDYGGQGTQVTVSS | low polyreactivity
QVQLVESGGGLVQAGGSLRLSCAASGFTFLYNVMGWYRQAPGKERELVAAISQSGTDTYYADSVKGRFTISRDNAKYTVYLQMNSLKPEDTAVYYCAVDVYFYYRHYGYWGQGTQVTVSS | low polyreactivity
QVQLVESGGGLVQAGGSLRLSCAASGFTFLYYAMGWYRQAPGKEREVVAAISSGGSTYYADSVKGRFTISRDNAKNTVYLQMNSLKPEDTAVYYCNVRYTRNRWQYDYWGQGSQVTVSS | high polyreactivity
QVQLVESGGGLVQAGGSLRLSCAASGFTFLYYTMGWYRQAPGKERELVAAISSGGRTTYADSVKGRFTISRDNAKNTVYLQMNSLKQEDTAVYYCAARYRTLDGEVDYWGQGTQVTVSS | high polyreactivity
QVQLVESGGGLVQAGGSLRLSCAASGFTFNDYAMGWYRQAPGKERELVAAIDWSGGRTYYADSVKGRFTISRDNAKNTVYLQMNSLKPEDTAVYYCAAVLYSRLYLYRLDYWGQGTQVTVSS | low polyreactivity
QVQLVESGGGLVQAGGSLRLSCAASGFTFNFYAMRWYRQAPGKERELVAAITASGVRRYYADSVKGRFTISRDNAKNTVYLQMNSLKPEDTAVYYCNTYMYRNKSGYDYWGQGTQVTVSS | high polyreactivity
QVQLVESGGGLVQAGGSLRLSCAASGFTFNKYAMGWYRQAPGKERELVAAISSSGGSTRYADSVKGRFTISRDNAKNTVYLQMNSLKPEDTAVYYCAVYVTRDSGWWLYDYWGQGTQVTVSS | high polyreactivity
QVQLVESGGGLVQAGGSLRLSCAASGFTFNNNAMGWYRQAPGKERELVAAITSSGGSTRYADSVKGRFTISRDNAKNTVYLQMNSLKPEDTAVYYCNAARQRKYSNWYDYWGQGTQVTVSS | high polyreactivity
QVQLVESGGGLVQAGGSLRLSCAASGFTFNNYAMGWYRQAPGKERELVAAISSGAGTYYADSVKGRFTISRDNAKNTVYLQMNSLKPEDTAVYYCNASLKYQGLTRITYRDDYWGQGTQVTVSS | low polyreactivity
QVQLVESGGGLVQAGGSLRLSCAASGFTFNRNDMGWYRQAPGKERELVAAISTSGGRTYYADSVKGRFTISRDNAKNTVYLQMNSLKPEDTAVYYCAADGIYPVGVDYWGQGTQVTVSS | high polyreactivity
QVQLVESGGGLVQAGGSLRLSCAASGFTFNRTAMGWYRQAPGKERELVAAITRRGGSTYYADSVKGRFTISRDNAKNTVYLQMNSLKPEDTAVYYCAARRGAGDGYWGQGTQVTVSS | high polyreactivity
QVQLVESGGGLVQAGGSLRLSCAASGFTFNRYAMGWYRQAPGKERELVAAISWSGTSTYYADSVKGRFTISRDNAKNTVYLQMNSLKQEDTAVYYCAARVKGQWNTYDYWGQGTQVTVTS | high polyreactivity
QVQLVESGGGLVQAGGSLRLSCAASGFTFNRYAMGWYRQAPGKERELVATITSGGNTYYADSVKGRFTISRDNAKNTVYLQMNSLKPEDTAVYYCNKRGWYSVYRRDFWGQGTQVTVSS | high polyreactivity
QVQLVESGGGLVQAGGSLRLSCAASGFTFNSYAMGWYRQAPGKERELVAAISSSGGRTYYADSVKGRFTISRDNAKNTVYFQMNSLKPEDTAVYYCNAVLVSYYSVGYDYWGQGSQVTVSS | high polyreactivity
